Test results published in IntAct's records for PubMed 28007894.

B1: Serine/threonine/tyrosine-interacting protein (Homo sapiens), Q8WUJ0 (parent)
chain: MEDVKLEFPSLPQCKEDAEEWTYPMRREMQEILPGLFLGPYSSAMKSKLPVLQKHGITHIICIRQNIEANFIKPNFQQLFRYLVLDIADNPVENIIRFFPMTKEFIDGSLQMGGKVLVHGNAGISRSAAFVIAYIMETFGMKYRDAFAYVQERRFCINPNAGFVHQLQEYEAIYLAKLTIQMMSPLQIERSLSVHSGTTGSLKRTHEEEDDFGTMQVATAQNG

Variants of: B1
Conditions: with FBXW7, Q969H0-1
Sequence of FBXW7, Q969H0-1 (Q969H0 whole entry): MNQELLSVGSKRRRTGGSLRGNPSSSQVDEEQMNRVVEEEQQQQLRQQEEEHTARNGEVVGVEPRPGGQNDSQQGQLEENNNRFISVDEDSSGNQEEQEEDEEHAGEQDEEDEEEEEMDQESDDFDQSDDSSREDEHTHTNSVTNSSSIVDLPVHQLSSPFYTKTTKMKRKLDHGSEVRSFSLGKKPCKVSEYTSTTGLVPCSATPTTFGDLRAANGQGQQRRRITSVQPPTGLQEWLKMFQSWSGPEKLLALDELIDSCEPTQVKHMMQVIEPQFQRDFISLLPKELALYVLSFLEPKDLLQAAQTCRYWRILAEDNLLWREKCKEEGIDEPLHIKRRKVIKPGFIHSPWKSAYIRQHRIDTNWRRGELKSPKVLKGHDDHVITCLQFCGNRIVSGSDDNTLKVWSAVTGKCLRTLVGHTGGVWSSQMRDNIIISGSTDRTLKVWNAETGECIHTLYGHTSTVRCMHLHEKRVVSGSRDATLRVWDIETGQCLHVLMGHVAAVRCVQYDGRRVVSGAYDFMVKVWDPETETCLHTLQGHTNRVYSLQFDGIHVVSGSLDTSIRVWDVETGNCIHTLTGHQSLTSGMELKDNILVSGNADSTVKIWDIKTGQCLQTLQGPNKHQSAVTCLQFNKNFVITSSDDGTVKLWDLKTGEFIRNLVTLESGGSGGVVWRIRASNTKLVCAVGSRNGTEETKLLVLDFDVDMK

effect of a mutation on the interaction | Variant
with no effect | G120C
